“Also recorded” adds a separate entry of the source.
Molecular target: 14C-labeled type I procollagen purified from chick embryo fibroblasts, P02457
Sequence (P02457 23-1453, chain 1 of 2): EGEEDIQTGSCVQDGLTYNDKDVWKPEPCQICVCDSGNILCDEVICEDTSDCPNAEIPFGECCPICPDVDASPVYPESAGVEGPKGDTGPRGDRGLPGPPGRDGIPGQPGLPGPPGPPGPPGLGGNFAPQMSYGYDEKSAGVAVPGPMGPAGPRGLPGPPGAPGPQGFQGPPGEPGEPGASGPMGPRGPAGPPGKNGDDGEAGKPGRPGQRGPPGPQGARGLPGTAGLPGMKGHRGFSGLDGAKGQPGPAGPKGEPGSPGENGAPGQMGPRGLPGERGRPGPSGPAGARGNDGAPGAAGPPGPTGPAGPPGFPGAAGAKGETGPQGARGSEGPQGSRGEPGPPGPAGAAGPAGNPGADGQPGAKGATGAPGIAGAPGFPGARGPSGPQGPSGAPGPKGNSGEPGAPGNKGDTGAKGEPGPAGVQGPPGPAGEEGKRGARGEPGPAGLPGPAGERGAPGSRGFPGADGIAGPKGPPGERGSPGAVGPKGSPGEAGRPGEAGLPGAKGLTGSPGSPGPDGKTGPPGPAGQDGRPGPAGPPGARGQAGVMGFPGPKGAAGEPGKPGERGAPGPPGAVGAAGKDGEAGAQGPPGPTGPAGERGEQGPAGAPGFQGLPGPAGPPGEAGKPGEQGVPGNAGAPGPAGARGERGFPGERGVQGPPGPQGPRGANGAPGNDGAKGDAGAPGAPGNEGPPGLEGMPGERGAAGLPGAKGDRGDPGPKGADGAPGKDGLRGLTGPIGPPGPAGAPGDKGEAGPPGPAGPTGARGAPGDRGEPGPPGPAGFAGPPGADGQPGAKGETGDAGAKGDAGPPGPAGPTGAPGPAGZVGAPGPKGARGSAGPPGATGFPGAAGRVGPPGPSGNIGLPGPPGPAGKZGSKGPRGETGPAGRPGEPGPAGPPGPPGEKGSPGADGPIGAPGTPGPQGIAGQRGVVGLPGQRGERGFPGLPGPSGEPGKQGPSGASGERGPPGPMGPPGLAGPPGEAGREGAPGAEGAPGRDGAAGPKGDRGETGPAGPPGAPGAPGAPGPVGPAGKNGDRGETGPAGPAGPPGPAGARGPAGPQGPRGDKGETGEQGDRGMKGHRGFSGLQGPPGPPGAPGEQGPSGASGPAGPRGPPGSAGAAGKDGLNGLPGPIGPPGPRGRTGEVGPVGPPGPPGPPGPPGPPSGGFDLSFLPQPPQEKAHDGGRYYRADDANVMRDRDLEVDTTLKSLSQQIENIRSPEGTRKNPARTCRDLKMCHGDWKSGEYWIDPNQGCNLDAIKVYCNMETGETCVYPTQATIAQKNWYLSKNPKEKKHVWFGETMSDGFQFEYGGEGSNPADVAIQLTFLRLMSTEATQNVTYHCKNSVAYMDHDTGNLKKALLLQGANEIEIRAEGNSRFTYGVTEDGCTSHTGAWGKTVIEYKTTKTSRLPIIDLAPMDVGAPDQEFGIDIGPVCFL
Sequence (chain, as listed by the source, chain 2 of 2): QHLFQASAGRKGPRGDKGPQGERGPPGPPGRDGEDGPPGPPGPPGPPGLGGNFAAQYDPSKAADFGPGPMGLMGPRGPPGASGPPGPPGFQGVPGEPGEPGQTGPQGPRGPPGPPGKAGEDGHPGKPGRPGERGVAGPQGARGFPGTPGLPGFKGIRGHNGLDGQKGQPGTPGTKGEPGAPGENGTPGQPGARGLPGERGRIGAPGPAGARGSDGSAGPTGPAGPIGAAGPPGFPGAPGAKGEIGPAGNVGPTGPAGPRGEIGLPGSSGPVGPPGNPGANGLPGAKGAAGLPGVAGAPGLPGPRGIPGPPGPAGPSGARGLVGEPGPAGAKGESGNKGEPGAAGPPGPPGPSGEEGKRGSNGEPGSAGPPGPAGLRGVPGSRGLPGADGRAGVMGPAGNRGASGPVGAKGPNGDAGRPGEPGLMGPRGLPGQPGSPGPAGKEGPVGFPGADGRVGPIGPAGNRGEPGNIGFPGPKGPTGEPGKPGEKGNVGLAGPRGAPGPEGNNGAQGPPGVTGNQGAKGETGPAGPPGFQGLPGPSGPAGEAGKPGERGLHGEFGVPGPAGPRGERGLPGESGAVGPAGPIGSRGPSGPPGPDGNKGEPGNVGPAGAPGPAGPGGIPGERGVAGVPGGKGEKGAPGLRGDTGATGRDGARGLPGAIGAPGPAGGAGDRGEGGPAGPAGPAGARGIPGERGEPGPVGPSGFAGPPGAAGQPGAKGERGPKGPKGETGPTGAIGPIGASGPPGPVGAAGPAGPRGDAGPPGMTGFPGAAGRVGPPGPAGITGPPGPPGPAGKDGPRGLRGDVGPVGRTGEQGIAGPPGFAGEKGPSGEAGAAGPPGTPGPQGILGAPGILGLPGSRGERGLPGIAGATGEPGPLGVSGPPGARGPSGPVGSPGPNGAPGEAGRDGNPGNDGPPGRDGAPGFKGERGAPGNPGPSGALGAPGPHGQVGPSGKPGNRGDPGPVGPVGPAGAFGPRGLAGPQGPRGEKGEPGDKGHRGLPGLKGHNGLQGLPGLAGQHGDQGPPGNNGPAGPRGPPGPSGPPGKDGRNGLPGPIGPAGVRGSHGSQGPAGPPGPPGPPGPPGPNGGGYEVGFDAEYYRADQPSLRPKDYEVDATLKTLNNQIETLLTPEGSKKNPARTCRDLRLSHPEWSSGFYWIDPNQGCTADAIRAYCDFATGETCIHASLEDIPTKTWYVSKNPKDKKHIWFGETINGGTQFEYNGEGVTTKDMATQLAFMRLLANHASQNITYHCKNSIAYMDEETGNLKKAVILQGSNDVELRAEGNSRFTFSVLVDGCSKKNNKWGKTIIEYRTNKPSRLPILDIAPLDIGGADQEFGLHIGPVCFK

B1: procollagen C-proteinase pCP-1 (730 amino acids), recombinant, in medium of transfected HT-1080 cells (protein)
chain: AATSRPERVWPDGVIPFVIGGNFTGSQRAVFRQAMRHWEKHTCVTFLERTDEHSYILFTYRPCGCCSYVGPRGGGPQAISIGKNCDKFGIVVHELGHVVGFWHEHTRPDRDRHVSIVRENIQPGQEYNFLKMEPQEVESLGETYDFDSIMHYARNTFSRGIFLDTIVPKYEVNGVKPPIGQRTRLSKGDIAQARKLYKCPACGETLQDSTGNFSSPEYPNGYSAHMHCVWRISVTPGEKIILNFTSLDLYRSPLCWYDYVEVRDGFWRKAPLRGRFCGSKLPEPIVSTDSRLWVEFRSSSNWVGNGFFAVYEGICGGDVKKDYGHIQSPNYPDDYRPSKVCIWRIQVSEGFHVGLTFQSFEIERHDSCAYDYLEVRDGHSESSTLIGRYCGYEKPDDIKSTSSRLWLKFVSDGSINKAGFAVNFFKEVDECSRPNRGGCEQRCLNTLGSYKCSCHPGYELAPDKRRCEAACGGFLTKLNGSITSPGWPKEYPPNKNCIWQLVAPTQYRISLQFDFFETEGNDVCKYDFVEVRSGLTAHSKLHGKFCGSEKPEVITSQYNNMRVEFKSDNTVSKKGFKAHFFSENRPALQPPRGPPHQLKFRVQKRNRTPQ
  C-proteinase activity: cleavage of 14C-labeled type I procollagen, SDS-polyacrylamide gel: Medium from neomycin-resistant clones expressing either pCP-1 or pCP-2 contained enzymatic activity that specifically cleaved type I procollagen into the products predicted by the introduction of C-proteinase

B2: procollagen C-proteinase pCP-2 (986 amino acids), recombinant, in medium of transfected HT-1080 cells (protein)
chain: AATSRPEPVWPDGVIPFVIGGNFTGSQRAVFPQAMRHWEKHTCVTFLERTDEDSYILFTYAPCGCCSYVGRRGGGPQAISMGKNCDKFGIVVHELGHVVGLWHEHTGPDRDRQVSIVRENIQPGQEYNFLKMEPQEVESLGETYDFDSIMHYARNTFSRGIFLDTIVPKYEVNGVKPPIGQRTRLRKGDIAQAPKLYKCPACGETLQDSTGNFSSPEYPNGYSAHMHCVWRICVTPGEKIILNFTSLDLYRSGLCWYQYVEVRDGFWRKAPLRGRFCGSKLPEPIVSTDSRLWVQFRSSSNWLGKGFFPVYEAMWGGDVKKDYGQIQSPNYPDDYRPSKVWMWRIQVSEGFDVGLTFQSFEIERHDSCGYDYLEVRDGHSESSTLIGRYCRYEKPDEIKSTSSPLWLKFVSDGSINKPGFAVNFFKEVDECSRPNRGGCEQRCLNTLGSYKWSCDPGYELPPEKRRCEAPCGGFLTKLNGSISRGGWPKEYPPNKNCIWQLVAPTQYRISLQFDFFETEGNDVCKYDFVEVRSGLTADSKLHGKFCGSEKPEVITSQYNNMRVEFKSDNTVSKKGFKAHFFSDKDECSKDNGGCQQDCVNTFGSYECQCRSGFVLHDNKHDCKEPGCDHKVTSTSGTITSPNWPDKYPSKKECTWAISSTPGHRVKLTFMEMDIESQPECAYDHLEVFDGRDAKAPVLGRFCGSKKPEPVLGTGSRMFLRFYSDNSVQRKGFQASHATECGGQVGADVKTKDLYSHAQFGDNNYPGGVDCEWVIVPEEGYGVEVLFQTFEVEDQTDCGYHYMELFDGYDSTAPRLGRYCGSGPPEEVYSAGDSVLVKFHSDDTITKKGFHLRYTSTKFQDTLHSRK
  C-proteinase activity: cleavage of 14C-labeled type I procollagen, SDS-polyacrylamide gel: Medium from neomycin-resistant clones expressing either pCP-1 or pCP-2 contained enzymatic activity that specifically cleaved type I procollagen into the products predicted by the introduction of C-proteinase; also recorded: Complete cleavage of type I procollagen to pNα1 (I) chains, pNα2 (I) chains and the C-propeptide were obtained with medium from a clone transfected with pCP-2 and partially fractionated and concentrated by membrane filtration

B3: recombinant pCP-2 with a 6-histidine tag, expressed in E. coli, refolded and activated by limited digestion with chymotrypsin (protein)
chain: AATSRPEPVWPDGVIPFVIGGNFTGSQRAVFPQAMRHWEKHTCVTFLERTDEDSYILFTYAPCGCCSYVGRRGGGPQAISMGKNCDKFGIVVHELGHVVGLWHEHTGPDRDRQVSIVRENIQPGQEYNFLKMEPQEVESLGETYDFDSIMHYARNTFSRGIFLDTIVPKYEVNGVKPPIGQRTRLRKGDIAQAPKLYKCPACGETLQDSTGNFSSPEYPNGYSAHMHCVWRICVTPGEKIILNFTSLDLYRSGLCWYQYVEVRDGFWRKAPLRGRFCGSKLPEPIVSTDSRLWVQFRSSSNWLGKGFFPVYEAMWGGDVKKDYGQIQSPNYPDDYRPSKVWMWRIQVSEGFDVGLTFQSFEIERHDSCGYDYLEVRDGHSESSTLIGRYCRYEKPDEIKSTSSPLWLKFVSDGSINKPGFAVNFFKEVDECSRPNRGGCEQRCLNTLGSYKWSCDPGYELPPEKRRCEAPCGGFLTKLNGSISRGGWPKEYPPNKNCIWQLVAPTQYRISLQFDFFETEGNDVCKYDFVEVRSGLTADSKLHGKFCGSEKPEVITSQYNNMRVEFKSDNTVSKKGFKAHFFSDKDECSKDNGGCQQDCVNTFGSYECQCRSGFVLHDNKHDCKEPGCDHKVTSTSGTITSPNWPDKYPSKKECTWAISSTPGHRVKLTFMEMDIESQPECAYDHLEVFDGRDAKAPVLGRFCGSKKPEPVLGTGSRMFLRFYSDNSVQRKGFQASHATECGGQVGADVKTKDLYSHAQFGDNNYPGGVDCEWVIVPEEGYGVEVLFQTFEVEDQTDCGYHYMELFDGYDSTAPRLGRYCGSGPPEEVYSAGDSVLVKFHSDDTITKKGFHLRYTSTKFQDTLHSRK
  C-proteinase activity in a standard reaction system with 14C-labeled procollagen: Specific C-proteinase activity was observed (Lanes 1 to 4 in FIG. 5 ) after limited digestion with chymotrypsin
  specific activity relative to C-proteinase isolated from chick embryo tendons: about 1/30-th of the specific activity of C-proteinase isolated from chick embryo tendons

B4: recombinant pCP-2 with a 6-histidine tag, expressed in E. coli, refolded, without chymotrypsin activation (protein)
chain: LDFPDYTYDLAEEDDSEPLNYKDPCKAAAFLGDIALDEEDLRAFQVQQAVDVRRHTARKSSIKAAVPGNTSTPTCQSTNGQPQRGACGRWRGRSRSRRAATSRPEPVWPDGVIPFVIGGNFTGSQRAVFPQAMRHWEKHTCVTFLERTDEDSYILFTYAPCGCCSYVGRRGGGPQAISMGKNCDKFGIVVHELGHVVGLWHEHTGPDRDRQVSIVRENIQPGQEYNFLKMEPQEVESLGETYDFDSIMHYARNTFSRGIFLDTIVPKYEVNGVKPPIGQRTRLRKGDIAQAPKLYKCPACGETLQDSTGNFSSPEYPNGYSAHMHCVWRICVTPGEKIILNFTSLDLYRSGLCWYQYVEVRDGFWRKAPLRGRFCGSKLPEPIVSTDSRLWVQFRSSSNWLGKGFFPVYEAMWGGDVKKDYGQIQSPNYPDDYRPSKVWMWRIQVSEGFDVGLTFQSFEIERHDSCGYDYLEVRDGHSESSTLIGRYCRYEKPDEIKSTSSPLWLKFVSDGSINKPGFAVNFFKEVDECSRPNRGGCEQRCLNTLGSYKWSCDPGYELPPEKRRCEAPCGGFLTKLNGSISRGGWPKEYPPNKNCIWQLVAPTQYRISLQFDFFETEGNDVCKYDFVEVRSGLTADSKLHGKFCGSEKPEVITSQYNNMRVEFKSDNTVSKKGFKAHFFSDKDECSKDNGGCQQDCVNTFGSYECQCRSGFVLHDNKHDCKEPGCDHKVTSTSGTITSPNWPDKYPSKKECTWAISSTPGHRVKLTFMEMDIESQPECAYDHLEVFDGRDAKAPVLGRFCGSKKPEPVLGTGSRMFLRFYSDNSVQRKGFQASHATECGGQVGADVKTKDLYSHAQFGDNNYPGGVDCEWVIVPEEGYGVEVLFQTFEVEDQTDCGYHYMELFDGYDSTAPRLGRYCGSGPPEEVYSAGDSVLVKFHSDDTITKKGFHLRYTSTKFQDTLHSRK
  C-proteinase activity in a standard reaction system with 14C-labeled procollagen: No C-proteinase activity was observed when the recombinant protein was incubated in a standard reaction system without prior activation of the protein by digestion with chymotrypsin
